From the supplement of paper PMC10724198
± gives the standard deviation of the averaged measurements.

Test system: Saccharomyces cerevisiae
Test: protein stability index of tFT-peptide fusion (C-terminal peptide) (PSI (0-1 scale)); higher = more stable (slower turnover)
Conditions: temperature: 30 C
Description: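 MPS profiling in S. cerevisiae of the yeast C-terminome library: the last 12 aa of each annotated ORF are fused to the C-terminus of a sfGFP-mCherry timer, after a GGGS linker. Cells are FACS-sorted into 8 mCherry/sfGFP bins and deep-sequenced. PSI runs from 0 (unstable) to 1 (stable); wild type and das1Δ backgrounds, two technical replicates each.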

[1] = genetic background: das1 deletion

| Sequence | protein stability index [1] | protein stability index (genetic background: wild type) |
| --- | --- | --- |
| MEDILDETTELD [ATG40 C-terminal 12 aa] | 0.7155 ± 0.0025 | 0.715 ± 0.072 |
| VNGGSKKRKAND [RMI1 C-terminal 12 aa] | 0.664 ± 0.016 | 0.663 ± 0.0079 |
| SIPGITGRAQIS [ORM1 C-terminal 12 aa] | 0.6983 ± 0.0014 | 0.6656 ± 0.0065 |
| LLSAILDPSKSK [MED11 C-terminal 12 aa] | 0.709 ± 0.021 | 0.699 ± 0.046 |
| DQIYWFNHFSNV [AIM2 C-terminal 12 aa] | 0.7141 ± 0.0021 | 0.696 ± 0.027 |
| LFYNIRCLGKQF [YAR030C C-terminal 12 aa] | 0.707 ± 0.011 | 0.3967 ± 0.0018 |
| PFEDKFEIHDER [OPY2 C-terminal 12 aa] | 0.74255 ± 0.00063 | 0.7692 ± 0.00091 |
| QNADEESSSEEE [GCD6 C-terminal 12 aa] | 0.694 ± 0.011 | 0.6858 ± 0.0019 |
| DPFLYSCSRVAF [YDL196W C-terminal 12 aa] | 0.729 ± 0.038 | 0.702 ± 0.012 |
| ITRTRLDSFVKT [YBR072C-A C-terminal 12 aa] | 0.696 ± 0.038 | 0.6292 ± 0.0014 |
| NDGTFLDEVTKN [OPI10 C-terminal 12 aa] | 0.6922 ± 0.0066 | 0.687 ± 0.03 |
| VDDIVSGVRKQE [CCT3 C-terminal 12 aa] | 0.691 ± 0.028 | 0.677 ± 0.011 |
| RDLPSVLAKYGF [RRG1 C-terminal 12 aa] | 0.7236 ± 0.0048 | 0.703 ± 0.04 |
| CLQTESETDIET [LIF1 C-terminal 12 aa] | 0.661 ± 0.0085 | 0.674 ± 0.013 |
| FIVAEYIQQKKV [SRB4 C-terminal 12 aa] | 0.694 ± 0.018 | 0.3321 ± 0.00069 |
| VLHSIISICRIF [VPS65 C-terminal 12 aa] | 0.756 ± 0.014 | 0.641 ± 0.036 |
| DSDNAAPLHDEL [KRE5 C-terminal 12 aa] | 0.687 ± 0.017 | 0.685 ± 0.048 |
| RQSRERALGIKR [PRP22 C-terminal 12 aa] | 0.6929 ± 0.0054 | 0.701 ± 0.036 |
| MSKLGLIPKDFQ [HIS4 C-terminal 12 aa] | 0.6931 ± 0.0056 | 0.707 ± 0.036 |
| ELLYLIIAGLHI [FYV5 C-terminal 12 aa] | 0.6959 ± 0.0029 | 0.7 ± 0.05 |
| INFHSGSIFDAC [ENV11 C-terminal 12 aa] | 0.717 ± 0.029 | 0.7009 ± 0.0015 |

| Sequence | protein stability index [1] | protein stability index (genetic background: wild type) |
| --- | --- | --- |
| ENVEEDKEVHTN [PBI2 C-terminal 12 aa] | 0.675 ± 0.036 | 0.6976 ± 0.0046 |
| KYFHEDVSEDAY [MET5 C-terminal 12 aa] | 0.707 ± 0.028 | 0.699 ± 0.013 |
| CVDCGTVVNNFR [LAF1 C-terminal 12 aa] | 0.723 ± 0.019 | 0.688 ± 0.025 |
| QFFLAPKFNDEE [POL30 C-terminal 12 aa] | 0.712 ± 0.032 | 0.705 ± 0.023 |
| MERRARQQRGQD [MND2 C-terminal 12 aa] | 0.71114 ± 0.0003 | 0.717 ± 0.046 |
| ELIISKREIEKE [GEA1 C-terminal 12 aa] | 0.724 ± 0.022 | 0.731 ± 0.079 |
| MSLLGLVPVDRM [MSR1 C-terminal 12 aa] | 0.696 ± 0.00089 | 0.688 ± 0.023 |
| QHYDEYYHELTN [PHO8 C-terminal 12 aa] | 0.6964 ± 0.0064 | 0.68262 ± 0.00046 |
| GHNDGDINVWTL [CAF4 C-terminal 12 aa] | 0.7185 ± 0.0052 | 0.7273 ± 0.0028 |
| VKQLEVSSGIKQ [HEM1 C-terminal 12 aa] | 0.6929 ± 0.0017 | 0.675 ± 0.043 |
| EKFLGKKKTKTD [GPI16 C-terminal 12 aa] | 0.701 ± 0.06 | 0.689 ± 0.05 |
| PVTAIALLEARR [YER190C-A C-terminal 12 aa] | 0.6783 ± 0.005 | 0.65 ± 0.01 |
| KDDTPEDNLEDK [VBA5 C-terminal 12 aa] | 0.6969 ± 0.0021 | 0.71 ± 0.0088 |
| DDGTKNFIFKNK [ECM23 C-terminal 12 aa] | 0.7072 ± 0.0034 | 0.706 ± 0.031 |
| TRDAPRERSPTR [NPL3 C-terminal 12 aa] | 0.716 ± 0.016 | 0.65 ± 0.018 |
| KEESGTTSLPTI [GGA1 C-terminal 12 aa] | 0.723 ± 0.02 | 0.704 ± 0.011 |
| AIARCALGETLL [CAR1 C-terminal 12 aa] | 0.685 ± 0.011 | 0.641 ± 0.011 |
| NAKKGSKIEEIE [PTC3 C-terminal 12 aa] | 0.6731 ± 0.0047 | 0.6656 ± 0.0058 |
| KFFNYDGSEGVF [OSI1 C-terminal 12 aa] | 0.7095 ± 0.0039 | 0.715 ± 0.022 |
| FDALMNNDGDSD [TIF4632 C-terminal 12 aa] | 0.68 ± 0.016 | 0.6696 ± 0.0037 |
| FNNILTKEMQKI [CLD1 C-terminal 12 aa] | 0.701 ± 0.031 | 0.717 ± 0.049 |

| Sequence | protein stability index [1] | protein stability index (genetic background: wild type) |
| --- | --- | --- |
| RMDEENYEEEFC [UBP11 C-terminal 12 aa] | 0.716 ± 0.02 | 0.707 ± 0.034 |
| SRDYEETEYSVI [SPP381 C-terminal 12 aa] | 0.709 ± 0.025 | 0.687 ± 0.062 |
| SKLGINSGLCTN [ESL1 C-terminal 12 aa] | 0.683 ± 0.01 | 0.688 ± 0.03 |
| SFYDNSLQTWIV [RRT2 C-terminal 12 aa] | 0.7484 ± 0.0042 | 0.752 ± 0.029 |
| KAQRSIWGKKSQ [ERV46 C-terminal 12 aa] | 0.6703 ± 0.0035 | 0.682 ± 0.018 |
| TNDSFNIVALTP [PRP19 C-terminal 12 aa] | 0.68811 ± 0.00023 | 0.654 ± 0.017 |
| HAERERENMIYD [YGL108C C-terminal 12 aa] | 0.7122 ± 0.0035 | 0.695 ± 0.029 |
| TTVPIVSKKRQK [POP3 C-terminal 12 aa] | 0.685 ± 0.033 | 0.699 ± 0.01 |
| LSKMYIGWLPFW [MEC1 C-terminal 12 aa] | 0.7227 ± 0.0057 | 0.6826 ± 0.002 |
| QPYRSGTLGKRR [AIR2 C-terminal 12 aa] | 0.674 ± 0.035 | 0.6998 ± 0.004 |
| KSLAECQELLKN [TPD3 C-terminal 12 aa] | 0.687 ± 0.0072 | 0.663 ± 0.061 |
| LLLAGRKLSLDK [ARK1 C-terminal 12 aa] | 0.694 ± 0.016 | 0.715 ± 0.023 |
| TRFFDSKYFGCD [URK1 C-terminal 12 aa] | 0.701 ± 0.0078 | 0.73 ± 0.072 |
| IFNATASNPFGF [SLA1 C-terminal 12 aa] | 0.738 ± 0.029 | 0.747 ± 0.045 |
| RSHSRKNSLSLL [SPO24 C-terminal 12 aa] | 0.72 ± 0.021 | 0.734 ± 0.028 |
| SLKNYHNNTAQA [DBP6 C-terminal 12 aa] | 0.688 ± 0.031 | 0.68 ± 0.0075 |
| FSYIRSKQMQQK [MNE1 C-terminal 12 aa] | 0.746 ± 0.031 | 0.6666 ± 0.0065 |
| DNYLKYIKALLL [MSH2 C-terminal 12 aa] | 0.71 ± 0.029 | 0.445 ± 0.026 |
| AKKKKKRIRGFG [RRN6 C-terminal 12 aa] | 0.686 ± 0.015 | 0.671 ± 0.034 |
| KISKSELEGVPS [MTC6 C-terminal 12 aa] | 0.722 ± 0.019 | 0.714 ± 0.045 |
| LLPLIYLINKSL [YMR013C-A C-terminal 12 aa] | 0.622 ± 0.014 | 0.199 ± 0.022 |

| Sequence | protein stability index [1] | protein stability index (genetic background: wild type) |
| --- | --- | --- |
| MGDEYVSSDEDF [HEF3 C-terminal 12 aa] | 0.7279 ± 0.0024 | 0.686 ± 0.054 |
| LFYQTIGEFASL [ATF2 C-terminal 12 aa] | 0.706 ± 0.01 | 0.721 ± 0.037 |
| FDRVRLLVDKIT [HIR3 C-terminal 12 aa] | 0.683 ± 0.0076 | 0.234 ± 0.0042 |
| KKKYKFHQGLSI [SOL2 C-terminal 12 aa] | 0.699 ± 0.028 | 0.695 ± 0.02 |
| DTSLYRYRSYGY [PUF2 C-terminal 12 aa] | 0.7007 ± 0.0045 | 0.683 ± 0.033 |
| LKQKALVAAKQS [YJR015W C-terminal 12 aa] | 0.679 ± 0.024 | 0.319 ± 0.03 |
| DENRHSIRIPFN [USB1 C-terminal 12 aa] | 0.704 ± 0.015 | 0.688 ± 0.013 |
| HWRSVYDEFGEL [APE1 C-terminal 12 aa] | 0.721 ± 0.01 | 0.701 ± 0.024 |
| NCIETFVAEKTT [SRB6 C-terminal 12 aa] | 0.679 ± 0.014 | 0.669 ± 0.0071 |
| AYFPQKYKHKYI [PRM6 C-terminal 12 aa] | 0.689 ± 0.0077 | 0.5656 ± 0.004 |
| LYKRWVPGRNRD [SEN2 C-terminal 12 aa] | 0.696 ± 0.0095 | 0.696 ± 0.034 |
| DYLYAKDDLLKW [GPP1 C-terminal 12 aa] | 0.7287 ± 0.0048 | 0.709 ± 0.011 |
| AGADNTARLWTT [ERB1 C-terminal 12 aa] | 0.722 ± 0.014 | 0.736 ± 0.056 |
| LKPWEGRIYLVK [MAL12 C-terminal 12 aa] | 0.6483 ± 0.0018 | 0.697 ± 0.022 |
| EREVNPSARSLG [YLR184W C-terminal 12 aa] | 0.694 ± 0.028 | 0.684 ± 0.013 |
| SSANIDINSIAK [SPO22 C-terminal 12 aa] | 0.7 ± 0.04 | 0.729 ± 0.11 |
| LEKLCQKQSSTK [CMC1 C-terminal 12 aa] | 0.724 ± 0.022 | 0.712 ± 0.066 |
| DAAIVKKYKNKT [NUP57 C-terminal 12 aa] | 0.687 ± 0.025 | 0.692 ± 0.033 |
| IQAKLKISVHDI [BEM1 C-terminal 12 aa] | 0.674 ± 0.0062 | 0.681 ± 0.0069 |
| VYKDWEMNLMLS [ARG81 C-terminal 12 aa] | 0.727 ± 0.025 | 0.656 ± 0.024 |
